Reference: article doi:10.1101/380220 (bioRxiv, 2019)
Where two headings read alike, the source gives them in different places.

T1: GTP-loaded Ras1.G17V (1-172) (fission yeast (Schizosaccharomyces …, UniProt P08647 1-172, G17V))
T1 sequence (looked up): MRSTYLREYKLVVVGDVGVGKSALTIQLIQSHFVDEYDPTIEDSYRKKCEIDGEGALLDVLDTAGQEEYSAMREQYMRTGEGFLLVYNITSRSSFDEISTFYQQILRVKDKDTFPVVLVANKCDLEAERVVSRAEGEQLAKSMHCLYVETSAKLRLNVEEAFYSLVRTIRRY


Experiments:
[1] = molecular target: T1, GTP-loaded Ras1.G17V (1-172); assay: pull-down
[2] = molecular target: T1, GTP-loaded Ras1.G17V (1-172); assay: pull-down; remark: listed apart in the source

binding result [1] | binding result [2] | Binder
binds |  | GST-Scd1 (760-872) (domain or fragment, UniProt P40995 760-872, looked up) SSSTSTSLSVRNTTNVKIRLRLHEVSLVLVVAHDITFDELLAKVEHKIKLCGILKQAVPFRVRLKYVDEDGDFITITSDEDVLMAFETCTFELMDPVHNKGMDTVSLHVVVYF
 | binds | Scd1 (760-872) fragment (domain or fragment, UniProt P40995 760-872, looked up) SSSTSTSLSVRNTTNVKIRLRLHEVSLVLVVAHDITFDELLAKVEHKIKLCGILKQAVPFRVRLKYVDEDGDFITITSDEDVLMAFETCTFELMDPVHNKGMDTVSLHVVVYF
binds |  | GST-Byr2 (65-180) (domain or fragment, UniProt P28829 65-180, looked up) REFPRPCILRFIACNGQTRAVQSRGDYQKTLAIALKKFSLEDASKFIVCVSQSSRIKLITEEEFKQICFNSSSPERDRLIIVPKEKPCPSFEDLRRSWEIELAQPAALSSQSSLSP
